B1: TPR t1 (parent)
chain: GACCAAUCUGCCCUCAGAGCUCGAGAACAUCUUCGGAUGCAGAGGAGGCAGGCUUCGGUGGCGCGAUAGCGCCAACGUCCUCAACCUCCAAUGCAUCCCACCACAUGAUGAUGCCUGAAGAGCCUUGGUUUUUUG

This series covers variants of B1. The experiment in a line: polymerase ribozyme fitness, log enrichment relative to wild type (log ratio); higher = more active; in vitro selection for triplet polymerase activity. The gist of the method:
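One round of in vitro selection, in triplicate, was applied to PCR-built, transcribed mutant libraries of each subunit of a heterodimeric triplet polymerase ribozyme. The steps were annealing with a biotinylated primer, partner subunit and triplets, incubation frozen at −7 °C, gel excision of extended constructs, streptavidin-bead capture and RT-PCR. Fitness is the logarithm, base 2, of genotype enrichment over wild-type enrichment from inverse-variance-weighted replicate averages of Illumina-sequenced inputs and outputs, keeping genotypes with ≥10 input reads and ≥1 read per output.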
For G36U C56U C104A, the “polymerase ribozyme fitness (log ratio)” value is -2.85.

Regarding U38A G45U G57U, the “polymerase ribozyme fitness (log ratio)” value was -2.52. Consider G35A A103G, for which the “polymerase ribozyme fitness (log ratio)” value was -6.59. Next, A37U G63C C104U U116C: -1.47; A37C G48C U54C G63A A74U G113A: -5.41; G36A C82U C123G: 0.9. Next, G36C C40G C72U C73A: -5.31; G36U G71U G117A: -4.25; G35U G69A U81C G113U: -6.53. As to A37U A83U U96A C124U U131A, the “polymerase ribozyme fitness (log ratio)” value was determined as 1.19. The result for G35A C86G reads -5.03. The result for A37U C115A reads -0.816; that for A37U C115U, -0.707; that for G36U A50C A84U, -1.94. G35A A41C U54C C64A A84G C101U C123U: the “polymerase ribozyme fitness (log ratio)” value was -7.59. The result for G36A C62U C72U reads -0.886; that for G36A A43C C115A, -3.76. Regarding G36C U55G, the “polymerase ribozyme fitness (log ratio)” value is -1.03. The result for G36U C101A U130C reads -1.6; that for A37U C86A, -0.797. G35A U59C U116G G122U C124G: the “polymerase ribozyme fitness (log ratio)” value is -6.12.

As for C34U U106A, the “polymerase ribozyme fitness (log ratio)” value was -4.95. Turning to C34U U106C, the “polymerase ribozyme fitness (log ratio)” value is -3.99. Next, G35A C73G C80A A121G: -6.83; G35U G39U C72U A75U A103U: -8.04.

Regarding A37U C70A, the “polymerase ribozyme fitness (log ratio)” value was -1.11. Next, G36U C86A: -1.1; A37G C40U: -1.48.

With A37U C72G U78C A119U, the “polymerase ribozyme fitness (log ratio)” value was -1.26.

Consider G36A G45C G58C C64G G117U, for which the “polymerase ribozyme fitness (log ratio)” value is -6.11. Next, A37U U59G C124G: 1.68; A37C A95G: -0.966. Take A37G A84C: the “polymerase ribozyme fitness (log ratio)” value is -0.444. The result for A37U G44A A83C G120C U130G reads -1.38. Next, G36U G58C G71C A91U G120U: -4.22; A37G C70U C79A: -3.05.

As for C34U C64U C88U, the “polymerase ribozyme fitness (log ratio)” value is -4.34. The result for G36A C72U C85G C89U C94U reads -2.78; that for G36U G39A C53A C94G C124G G127C, -2.11; that for U38A A41U G44U G113A, -5.6.

For the variant C34U C101U U112A, the “polymerase ribozyme fitness (log ratio)” value is -6.92. Next, A37G G39C: -2.69.

Regarding G36A A43U C62U G113A, the “polymerase ribozyme fitness (log ratio)” value is -3.5. Take G35U C82U C115A: the “polymerase ribozyme fitness (log ratio)” value is -6.43.

In the case of A37U A91U U130A, the “polymerase ribozyme fitness (log ratio)” value was -2.83. Next, U38A G44U G52U C72G: -4.73.

With G36C G63U C98U, the “polymerase ribozyme fitness (log ratio)” value is -3.08. The result for G36U C85A C104A reads -3.96; that for G35U G44A U67C A105G U112A, -6.79. Next, A37C C56G: -1; G36C C53A C115U U116G: -4.36; A37U C70G C97U G117U: -5.65.

As for A37C C64U U92G, the “polymerase ribozyme fitness (log ratio)” value is -2.59. G36U G44A C72A C94G C123G: the “polymerase ribozyme fitness (log ratio)” value was -4.22. The result for C34U G45C G69U C115G reads -3.26; that for A37G C56U, -0.0501. The result for A37C A68G reads -2.51; that for A37C G42U G48C A50U C70U G120U C124U, -3.73; that for A37G U92C U106C G110A, -3.53. For A37G C64U C73G U109A, the “polymerase ribozyme fitness (log ratio)” value is -6.41. Next, C34U G36U G61A C97G A119G: -3.91; U38A C73U C114A A121U: -1.65. Next, G36C U87G U116A: -5.07.

G36U C104U: the “polymerase ribozyme fitness (log ratio)” value is -1.41. On to G35A C101U C115A, for which the “polymerase ribozyme fitness (log ratio)” value was -3.56. The result for G36C C53G C56A A95U reads -2.45; that for G36U U59A A90G C97G U106C, -1.98. Next, G35A C99G U133G: -5.8; A37C A118U: 0.469; A37U G63C A95C: -1.93. The result for A37U G47U C73U C101G C114U U126G reads -7.11. Take G36C U54G G61U: the “polymerase ribozyme fitness (log ratio)” value was -5.87. Regarding G35A G60C, the “polymerase ribozyme fitness (log ratio)” value is -5.49.

With G35C C49G U78A, the “polymerase ribozyme fitness (log ratio)” value was -5.52. The result for A37G C40U G51U C82G reads -3.82; that for G36C G61U C114A, -2.77; that for G35A C88U C102A, -5.27. Next, G36A G42C C76G: -2.73; A37U A41C U55C U87G C88U: -2.92. The result for G36U A111G U133G reads -2.38; that for G35U C53U G69U G110U, -4.63; that for A37G C53G G69A G110U U132C, -6.38. On to G35U G61U, for which the “polymerase ribozyme fitness (log ratio)” value is -5.28.
